From paper PMC10397247 come the findings set out here.

Holding throughout (assay): two-hybrid library CCmax;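 further: natural log of median RNA to DNA barcode read ratio; higher means stronger binding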
One assay deals with T1, Core_INII-es_KKKK.
T1 chain: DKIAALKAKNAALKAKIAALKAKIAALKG

The target in a further assay is T2, 4H1040-AA.
T2 chain: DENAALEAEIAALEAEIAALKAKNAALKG

A further assay concerns the target T3, 4H1262-AA.
T3 chain: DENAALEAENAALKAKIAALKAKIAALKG
The conditions noted are these: mean of both orientations.

In the next assay the target is T4, 4H133-AA.
T4 chain: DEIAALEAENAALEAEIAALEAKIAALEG
The conditions noted are these: mean of both orientations.

A further assay has as its target T5, 4H1349-AA.
T5 chain: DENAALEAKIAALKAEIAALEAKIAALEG
Particulars: mean of both orientations.

The next assay deals with T6, 4H1384-AA.
T6 chain: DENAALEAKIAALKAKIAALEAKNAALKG
The conditions noted are these: mean of both orientations.

For another assay, the target named is T7, 4H1449-AA.
T7 chain: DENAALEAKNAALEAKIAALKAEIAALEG
Particulars: mean of both orientations.

The target of a further assay is T8, 4H1593-AA.
T8 chain: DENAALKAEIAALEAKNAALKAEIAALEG
Particulars: mean of both orientations.

The next assay addresses T9, 4H1878-AA.
T9 chain: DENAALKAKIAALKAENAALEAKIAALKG
Particulars: mean of both orientations.

For the next assay, the target named is T10, 4H235-AA.
T10 chain: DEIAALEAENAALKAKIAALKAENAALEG
Particulars: mean of both orientations.

A further assay addresses T11, 4H249-AA.
T11 chain: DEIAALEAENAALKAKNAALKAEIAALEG
Particulars: mean of both orientations.

The target of the next assay is T12, 4H2580-AA.
T12 chain: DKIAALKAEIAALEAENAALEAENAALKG
Particulars: mean of both orientations.

The target of the next assay is T13, 4H2604-AA.
T13 chain: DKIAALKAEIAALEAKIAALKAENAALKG
Particulars: mean of both orientations.

In another assay the target is T14, 4H2621-AA.
T14 chain: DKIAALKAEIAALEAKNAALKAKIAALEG
The conditions noted are these: mean of both orientations.

For the next assay, the target named is T15, 4H2760-AA.
T15 chain: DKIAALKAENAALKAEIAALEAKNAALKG
The conditions noted are these: mean of both orientations.

The target in another assay is T16, 4H2774-AA.
T16 chain: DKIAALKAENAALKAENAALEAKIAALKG
The conditions noted are these: mean of both orientations.

Another assay deals with T17, 4H2903-AA.
T17 chain: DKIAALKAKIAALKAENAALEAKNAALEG
The conditions noted are these: mean of both orientations.

The next assay addresses T18, 4H2947-AA.
T18 chain: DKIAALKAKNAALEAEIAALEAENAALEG
The conditions noted are these: mean of both orientations.

The target of another assay is T19, 4H2961-AA.
T19 chain: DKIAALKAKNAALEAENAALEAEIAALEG
The conditions noted are these: mean of both orientations.

For the next assay, the target named is T20, 4H3049-AA.
T20 chain: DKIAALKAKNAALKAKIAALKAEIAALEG
The conditions noted are these: mean of both orientations.

A further assay concerns the target T21, 4H3094-AA.
T21 chain: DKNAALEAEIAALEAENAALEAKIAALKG
Particulars: mean of both orientations.

The next assay concerns the target T22, 4H324-AA.
T22 chain: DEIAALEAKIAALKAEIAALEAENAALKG
Particulars: mean of both orientations.

The next assay concerns the target T23, 4H341-AA.
T23 chain: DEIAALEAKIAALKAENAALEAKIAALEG
The conditions noted are these: mean of both orientations.

The next assay deals with T24, 4H3449-AA.
T24 chain: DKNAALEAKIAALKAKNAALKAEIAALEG
The conditions noted are these: mean of both orientations.

The target of a further assay is T25, 4H3619-AA.
T25 chain: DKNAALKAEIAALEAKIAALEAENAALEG
Particulars: mean of both orientations.

The next assay has as its target T26, 4H3629-AA.
T26 chain: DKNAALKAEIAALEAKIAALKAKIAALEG
Particulars: mean of both orientations.

Another assay concerns the target T27, 4H3777-AA.
T27 chain: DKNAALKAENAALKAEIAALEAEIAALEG
Particulars: mean of both orientations.

The next assay deals with T28, 4H380-AA.
T28 chain: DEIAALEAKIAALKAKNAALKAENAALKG
Particulars: mean of both orientations.

A further assay addresses T29, 4H3915-AA.
T29 chain: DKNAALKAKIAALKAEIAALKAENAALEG
Particulars: mean of both orientations.

For another assay, the target named is T30, 4H3974-AA.
T30 chain: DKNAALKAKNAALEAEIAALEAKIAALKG
The conditions noted are these: mean of both orientations.

For another assay, the target named is T31, 4H432-AA.
T31 chain: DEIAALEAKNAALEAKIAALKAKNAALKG
Particulars: mean of both orientations.

For a further assay, the target named is T32, 4H446-AA.
T32 chain: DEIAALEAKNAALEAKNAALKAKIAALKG
The conditions noted are these: mean of both orientations.

In a further assay the target is T33, 4H63-AA.
T33 chain: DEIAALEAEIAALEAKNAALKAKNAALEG
The conditions noted are these: mean of both orientations.

A further assay addresses T34, 4H1615-AA.
T34 chain: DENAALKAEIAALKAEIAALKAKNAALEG

A further assay has as its target T35, 4H1650-AA.
T35 chain: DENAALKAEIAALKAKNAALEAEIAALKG
The conditions noted are these: mean of both orientations.

The target of a further assay is T36, 4H175-AA.
T36 chain: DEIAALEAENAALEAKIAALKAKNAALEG
The conditions noted are these: mean of both orientations.

The target of the next assay is T37, 4H1765-AA.
T37 chain: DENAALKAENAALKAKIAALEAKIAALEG
Particulars: mean of both orientations.

In the next assay the target is T38, 4H1821-AA.
T38 chain: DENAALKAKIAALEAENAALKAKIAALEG
The conditions noted are these: mean of both orientations.

The target in a further assay is T39, 4H1828-AA.
T39 chain: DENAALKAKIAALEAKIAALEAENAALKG
Particulars: mean of both orientations.

A further assay has as its target T40, 4H1930-AA.
T40 chain: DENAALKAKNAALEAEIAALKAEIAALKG
Particulars: mean of both orientations.

The target of another assay is T41, 4H2124-AA.
T41 chain: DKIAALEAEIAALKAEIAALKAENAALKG
The conditions noted are these: mean of both orientations.

The target of another assay is T42, 4H2165-AA.
T42 chain: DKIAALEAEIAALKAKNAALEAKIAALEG
Particulars: mean of both orientations.

The next assay has as its target T43, 4H2253-AA.
T43 chain: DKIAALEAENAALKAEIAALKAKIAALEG

The target in another assay is T44, 4H2330-AA.
T44 chain: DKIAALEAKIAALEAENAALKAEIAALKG
The conditions noted are these: mean of both orientations.

Another assay has as its target T45, 4H2343-AA.
T45 chain: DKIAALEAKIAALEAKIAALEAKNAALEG
Particulars: mean of both orientations.

The target in another assay is T46, 4H2466-AA.
T46 chain: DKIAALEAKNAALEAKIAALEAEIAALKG
The conditions noted are these: mean of both orientations.

The target of another assay is T47, 4H2592-AA.
T47 chain: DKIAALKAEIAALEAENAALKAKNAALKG
Particulars: mean of both orientations.

The target in the next assay is T48, 4H2732-AA.
T48 chain: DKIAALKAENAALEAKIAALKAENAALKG
The conditions noted are these: mean of both orientations.

The next assay has as its target T49, 4H2931-AA.
T49 chain: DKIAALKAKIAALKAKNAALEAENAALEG
The conditions noted are these: mean of both orientations.

Another assay has as its target T50, 4H3001-AA.
T50 chain: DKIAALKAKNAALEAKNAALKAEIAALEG
The conditions noted are these: mean of both orientations.

A further assay has as its target T51, 4H3015-AA.
T51 chain: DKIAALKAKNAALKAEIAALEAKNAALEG
The conditions noted are these: mean of both orientations.

In the next assay the target is T52, 4H3073-AA.
T52 chain: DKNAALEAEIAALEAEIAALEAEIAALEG
The conditions noted are these: mean of both orientations.

In another assay the target is T53, 4H3438-AA.
T53 chain: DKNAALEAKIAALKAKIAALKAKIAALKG
Particulars: mean of both orientations.

The next assay deals with T54, 4H347-AA.
T54 chain: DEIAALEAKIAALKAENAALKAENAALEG
Particulars: mean of both orientations.

A further assay addresses T55, 4H406-AA.
T55 chain: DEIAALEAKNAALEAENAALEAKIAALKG
Particulars: mean of both orientations.

The next assay deals with T56, 4H452-AA.
T56 chain: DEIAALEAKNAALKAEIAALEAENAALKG
Particulars: mean of both orientations.

For another assay, the target named is T57, 4H56-AA.
T57 chain: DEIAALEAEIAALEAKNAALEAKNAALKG
The conditions noted are these: mean of both orientations.

A further assay addresses T58, 4H_APH.
T58 chain: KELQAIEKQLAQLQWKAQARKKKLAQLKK
Particulars: mean of both orientations.

The target in the next assay is T59, 4H_BCR.
T59 chain: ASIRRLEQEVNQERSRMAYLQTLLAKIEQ
Particulars: mean of both orientations.

A further assay addresses 4H_GCN4.
The next assay concerns the target GCN2_T. Particulars: mean of both orientations.
The target in the next assay is T60, Core_IIII-es_KKKE.
T60 chain: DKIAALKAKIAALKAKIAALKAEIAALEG
Particulars: mean of both orientations.

Chain of 4H_GCN4 (chain, as listed by the source): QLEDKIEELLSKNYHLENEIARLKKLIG

In turn, DEIAALEAENAALEAEIAALEAEIAALEG [Core_INII-es_EEEE] showed an interaction score with Core_INII-es_KKKK of 1.29.
For the molecule DENAALEAEIAALEAEIAALKAKNAALKG [4H1040-AA], the interaction score with 4H1040-AA was 0.802; with 4H1262-AA it was 1.1; with 4H133-AA it was -1.47; in the assay with 4H1349-AA, 0.263; in the assay with 4H1384-AA it was 0.28; in the assay with 4H1449-AA it was 0.618. Moreover, the interaction score is -1.27 with 4H1593-AA; -0.752 in the assay with 4H1878-AA; -1.14 with 4H235-AA; -0.999 with 4H249-AA; 1.19 with 4H2580-AA; 0.338 in the assay with 4H2604-AA. Further, the interaction score was -0.66 with 4H2621-AA; -1.46 with 4H2760-AA; -0.661 with 4H2774-AA; 1.05 with 4H2903-AA; -1.06 with 4H2947-AA; -1.24 in the assay with 4H2961-AA. Also, the interaction score with 4H3049-AA is 1.34; in the assay with 4H3094-AA, -1.03; with 4H324-AA, 1.68; with 4H341-AA it was -0.876; in the assay with 4H3449-AA, -0.935; with 4H3619-AA, 0.716. The interaction score in the assay with 4H3629-AA was 1.28; with 4H3777-AA, -0.948; with 4H380-AA it was 0.307; in the assay with 4H3915-AA, 2.34; with 4H3974-AA it was 0.222; in the assay with 4H432-AA, -1.63. The interaction score with 4H446-AA is -1.4; with 4H63-AA, -1.26.
Take DENAALKAEIAALKAEIAALKAKNAALEG [4H1615-AA]: the interaction score with 4H1615-AA is 1.78; in the assay with 4H1650-AA it was -1.46; with 4H175-AA, -1.43; with 4H1765-AA it was -1.45; with 4H1821-AA it was -1.23; with 4H1828-AA, -1.78. In addition, the interaction score in the assay with 4H1930-AA is -1.07; with 4H2124-AA it was -1.09; with 4H2165-AA, -1.55; in the assay with 4H2253-AA, -1.57; with 4H2330-AA, -1.4; with 4H2343-AA, -0.958. Besides, the interaction score was -1.57 with 4H2466-AA; -2.1 in the assay with 4H249-AA; -1.27 in the assay with 4H2592-AA; -1.79 in the assay with 4H2732-AA; -1.47 with 4H2774-AA; -1.79 in the assay with 4H2931-AA. For the same molecule, the interaction score was -1.81 with 4H3001-AA; -1.68 with 4H3015-AA; -0.406 in the assay with 4H3073-AA; -0.739 with 4H3438-AA; -1.38 with 4H347-AA; -1.66 with 4H406-AA. The interaction score is -1.96 in the assay with 4H452-AA; -1.15 with 4H56-AA; -1.58 in the assay with 4H_APH; -1.79 in the assay with 4H_BCR; -1.57 in the assay with 4H_GCN4; -1.38 with GCN2_T.
As to DEIAALEAEIAALEAEIAALEAKIAALKG [Core_IIII-es_EEEK], the interaction score with Core_IIII-es_KKKE was found to be 2.4.
